From the DeepSol protein solubility set

experiment: soluble on expression in E. coli; label from the status in PepcDB or PDB records

Sequence	soluble on expression in E. coli
MPFIECHIATGLSVARKQQLIRDVIDVTNKSIGSDPKIINVLLVEHAEANMSISGRIHGEAASTERTPAVS	soluble
MPFPVTTQGSQQTQPPQKHYGITSPISLAAPKETDCLLTQKLVETLKPFGVFEEEEELQRRILILGKLNNLVKEWIREISESKNLPQSVIENVGGKIFTFGSYRLGVHTKGADIDALCVAPRHVDRSDFFTSFYDKLKLQEEVKDLRAVEEAFVPVIKLCFDGIEIDILFARLALQTIPEDLDLRDDSLLKNLDIRCIRSLNGCRVTDEILHLVPNIDNFRLTLRAIKLWAKRHNIYSNILGFLGGVSWAMLVARTCQLYPNAIASTLVHKFFLVFSKWEWPNPVLLKQPEECNLNLPVWDPRVNPSDRYHLMPIITPAYPQQNSTYNVSVSTRMVMVEEFKQGLAITDEILLSKAEWSKLFEAPNFFQKYKHYIVLLASAPTEKQRLEWVGLVESKIRILVGSLEKNEFITLAHVNPQSFPAPKENPDKEEFRTMWVIGLVFKKTENSENLSVDLTYDIQSFTDTVYRQAINSKMFEVDMKIAAMHVKRKQLHQLLPSHVLQKKKKHSTEGV	soluble
MPGELLGAHYGHCFGCGEEQSHGLHLAARAGQGVSITAEFTVQPAHQGAPGLAHGGVLATALDETLGSLNWLLRTIAVTGRLETDFVRPVPVGTVLYLEAEVTAVAGRKIYSTATGRIGGPEGPVAVRADALFVEVKVDHFTDNGRQEEIRAAMNDPDQLRRARAFEVNPLEHHHHHH	not soluble
MPGIDKLPIEETLEDSPQTRSLLGVFEEDATAISNYMNQLYQAMHRIYDAQNELSAATHLTSKLLKEYEKQRFPLGGDDEVMSSTLQQFSKVIDELSSCHAVLSTQLADAMMFPITQFKERDLKEILTLKEVFQIASNDHDAAINRYSRLSKKRENDKVKYEVTEDVYTSRKKQHQTMMHYFCALNTLQYKKKIALLEPLLGYMQAQISFFKMGSENLNEQLEEFLANIGTSVQNVRREMDSDIETMQQTIEDLEVASDPLYVPDPDPTKFPVNRNLTRKAGYLNARNKTGLVSSTWDRQFYFTQGGNLMSQARGDVAGGLAMDIDNCSVMAVDCEDRRYCFQITSFDGKKSSILQAESKKDHEEWICTINNISKQIYLSENPEETAARVNQSALEAVTPSPSFQQRHESLRPAAGQSRPPTARTSSSGSLGSESTNLAALSLDSLVAPDTPIQFDIISPVCEDQPGQAKAFGQGGRRTNPFGESGGSTKSETEDSILHQLFIVRFLGSMEVKSDDHPDVVYETMRQILAARAIHNIFRMTESHLLVTCDCLKLIDPQTQVTRLTFPLPCVVLYATHQENKRLFGFVLRTSSGRSESNLSSVCYIFESNNEGEKICDSVGLAKQIALHAELDRRASEKQ	not soluble
MPGINGAGPSNFFWQWRTDGEPVTEREHDSSRSASSANSPELPPPASPAESGRQRLLRSSALSRQTREWLEATPARVQGATPPAEARQSPEAQQAERIVQELVRGGADLNNVRTMLRNVMDNNAVAFSRVERDILLQHFPNMPMTGISSDSVLANELRQRLRQTVRQQRIQSSTPARLADSSSGSSQRSLIGRSTMLMTPGRSSSSSAAASRTSVDRHPQGLDLESARLASAARHNHSANQTNEALRRLTQEGVDMERLRTSLGRYIMSLEPLPPDLRRALESVGINPFIPEELSLVDHPVLNFSAALNRMLASRQTTTNSPELPPLASSAESGRRRLLRSPPLLSGQREWIEQSMRQEAEPQSSRLNRAVRLAVMPPQNENEDNVAYAIRLRRLNPGADVSRVVASFITDPAARQQVVNDIRAALDIAPQFSQLRTISKADAESEELGFRDAADHPDNATSCLFGEELSLSNPDQQVIGLAVNPTDKPQPYSQEVNKALTFMDMKKLAQYLADKPEHPLNRQRLDAKNIAKYAFKIVP	not soluble
MPGRKRKLAAKTAELAPEAGEGSESTSLVGSADASASTAAGVAHTEQQEMPSGGLHESFLESIPPAASFLEELAWVESLASPSYVAYLCQMRRFDDVVAQRRLTTLQRWRQDPAYRQHVSQPIALFFLEQLCSAEFREALRHPAVAALYERQVDLYRRCYGNLLNTGESRVLR	not soluble
MPHVICEPCIGVKDQSCVEVCPVECIYDGGDQFYIHPEECIDCGACVPACPVNAIYPEEDVPEQWKSYIEKNRKLAGLE	soluble
MPIDDNIIIADEAVIHPGDLHEDFIRSSGPGGQNVNKVATAVQLRFDAANAAGLSERVRARTIKLAGQRATKDGVIVIEAGRFRTQEQNRADARARLTALVAKAAEPPPPPRKKTRPSKGAVERRLKSKAGRGTIKKLRGRVGDDLEHHHHHH	soluble
MPIEIITDSGADLPQSYIREHRIAFLPLVVHWNGQDYKDGITIEPKQVYDAMRQGHTVKTAQPSPLAMKELFLPYAKENRPCLYIAFSSKLSGTYQTAMAVRSELLDEYPEFRLTIIDSKCASLGQGLAVMKAVELAKQNTPYNLLCETIESYCRHMEHIFTVDNLDYLARGGRISKTAAAFGGLLNIKPLLHVEDGALIPLEKWRGRKKVLKRMVELMGERGDDLQKQTIGISHADDEETALELKQMIEETHGCTRFFLSDIGSAIGAHAGPGTIALFFLNKYIEI	soluble
MPIKVGINGFGRIGRMVFQALCEDGLLGTEIDVVAVVDMNTDAEYFAYQMRYDTVHGKFKYEVTTTKSSPSVAKDDTLVVNGHRILCVKAQRNPADLPWGKLGVEYVIESTGLFTAKAAAEGHLRGGARKVVISAPASGGAKTLVMGVNHHEYNPSEHHVVSNASCTTNCLAPIVHVLVKEGFGVQTGLMTTIHSYTATQKTVDGVSVKDWRGGRAAAVNIIPSTTGAAKAVGMVIPSTQGKLTGMSFRVPTPDVSVVDLTFTAARDTSIQEIDAALKRASKTYMKGILGYTDEELVSADFINDNRSSIYDSKATLQNNLPKERRFFKIVSWYDNEWGYSHRVVDLVRHMASKDRSARL	soluble
MPIPLYLQDWWLDAVCGFDEWMAFVLEEEGTVSGVMPCYMPVPGHISMPPFTQFLGSYSFIGINEDSTTSFRAHRRVHDMLRSMLPPHKSFMVQYSKDFTDWLPYYWQGYSQTTRYTYRIDLSPGIDVVRMAIRPDAMKKIRKAERDGLRCTSATVDDLLRLCRISMSRQEAKGFAAETLQRLAEVAIERHAGEIVGCEDSEGRLLAAVFLAHDHNTAYTIASGQIREGQGRNAGAFVLYEAIWRACEMEGIHTFDFEGSMLEGIEGFFRSFGGIQTPYFRLSKGRIGLYGRLRRKWRAFHDTGQQKQV	not soluble
MPIRAARASLRRMDSDFLIIGGGIAGVSAAARLSELGSVTLLEAEDALAHHASSRSAALYEPRYGLPPVVELSLASGDFFRAADGILSPRGLLVVGREAEREQFEDETVGMHLERISAEEARAAVPILRPDVTLAARADHAWDIDTDRLLQGFAREARARGARIVTKARVGAIARDGAGWRVEAGESYRARILVNAAGAWADGVAALSGVRPLGLVPYRRSMARIPAPGGHDISRWPMIFGVGESWYAKPDAGALIVSPADEDPQEPHDAWADDMVLAEGLARYEEMVTEPVTRLLASWAGLRTFAPDRVLVIGEDPAAPGFFWLAGQGGYGFQTCPAASRLAADLIGGRSPEVPAALIAALSPDRFALEHHHHHH	not soluble
MPKIPITLITGFLGSGKTSFLSEYLNQTDHQGVALIINEIGQAALDQRILSVQYCGEKMLYLNAGCVCCNKRLDLVESLKATLNNYEWHGEILRRIIIETTGLANPAPILWTILSDTFLGVHFEIQSVVACVDALNAREHLTNNEAKEQIVFADSVLLTKTDLQNDSAALTKLKERIQALNPSAEIFDKRAIDYESLFSRKNRARNFMPRMPKDSHSQGFETLSINFEGTMEWSAFGIWLSLLLHQYGTQILRIKGIIDIGSGFLVSINGVMHVIYPPKHILKDQNGSNLVFIMRHLEREKILNSLKGFKDFLGIKGFETQLEHHHHHH	soluble
MPKLSAFYYQVLEDFGYIYDSSITVPPVPVPVWPYTLDYKISHECKSGTCPSRTFPGVWEVPLNTHYVEGYEGGHCPYLDQCVLHNLDEEEVFQWLQEDFSRYYEQNKAPYMMPFHTNWFQTKPLENGLHKFLDWALELLEHHHHHH	not soluble
MPKNDLLLRSLRGEPIGRFPVWLMRQAGRYMPEYRKIRNRVKNFLELCKNVDLATEISLLPLKILGVDAIIIFSDILVPLEPLGVKVEFVEGEGPKLSWSGKVSDLKKYDPSQNAYVYEIIKRVKEAQDEVPVIGFAGAPFTLLSYLIEGGASKDFKSTKLFMWENPKEYKRLMDILTETVLAYLKEQIKAGADVVQIFDSWVNNLSLEDYGEYVYPYVNYLISELKDFSDTPVIYFFRGSSSFIDLAVDYRADALSVDWSVDIPELFKIYDKGFQGNLEPAVLYASEEVIEEKTLGLLRRIPVKTRYVFNLGHGLAPDMELEKVKYLVDLVKSFPLT	soluble
MPKVGMQPIRRQQLIQATLTAVDQVGMGDASIALIARLAGVSNGIISHYFQDKNGLIAATMRHLMNALIQNVRERRQALTEDSPRAHLQVIIEGNFDASQVSGPAMKTWLAFWATSMHHPSLHRLQRINDHRLYSNLCCQFRRTLPLEQARNAARGLAALIDGLWLRGALSGDAFDTEQAQRIAYEYMDFQLAKSAS	not soluble
MPKYYEDKPQGGACAGLKEDLGACLLQSDCVVQEGKSPRQCLKEGYCNSLKYAFFECKRSVLDNRARFRGRKGY	not soluble
MPLGSLFDKTYDEMHCNQKSWEMAERQLMEDAVNVALQKNNLTKDDIDLLLAGDLLNQNVTANYVARHLKIPFLCMFGACSTSMETVAVASALVDGGFAKRALAATSSHNATAERQFRYPTEYGGQKPDTATSTVTGSGAVVISQTPGDIQITSATVGKVSDLGITDPFDMGSAMAPAAADTIKQHFKDLNRTADDYDLILTGDLSGVGSPIVKDILKEDGYPVGTKHDDCGLLIYTPDQQVFAGGSGCACSAVVTYSHIFKQLREGKLNRVFVVATGALLSPTMIQQKETIPTIAHGVVFERAGGASLEHHHHHH	not soluble
MPLHVVLYQPEIPANTGNIARTCAATDTSLHLIRPLGFSTDDKMLKRAGLDYWPYVNISYYDSLDELFARFPEGEFYFITKFGRRYYDSFDFSDTEKHIFFVFGRETTGLPKELLEANMDRCLRIPMNDKVRSLNLSNTAAILVYEALRQQRFYGLS	not soluble
MPLLYLNTRECRWYLMGEGEMKKIAAISLISIFLISGCAVHNDETSIGKFGLAYKSNIQRKLDNQYYTEAEASLARGRISGAENIVKNDAAHFCVTQGKKMQIVDLKTEGAGLHGVARLTFKCGE	not soluble
MPLQVDDVAERAFVRIVGALRSVRVTSERSQNSLSTFLPVRGRAISEWETGAIQPKLSHLIQWSWELDRRLVIVGRDGELRNDSLRQRPGESWEVFERRRLATPLRNRRQAMGMAQGELADLVGVTRDSIQRWELVRVPPRPIALIVWAQKLG	not soluble
MPLVVNVLSTPLNAQPTRTAGFTLPEMMLALSFGSLIALSTAQVLPKLSQQISVLQQHYRLELVMNQAMGAMEKDLRRAGFCHGKCQGEAITIEHYLGETAHSCLIVAYDLNCNGRWEGAKHQESEYFGYRLRNKALESQRGELNCHGRGWEKLFDPRDVTVTHFSVTPLSGQLFKLRLVGHKTGNPAIHHQVTYLIRGNNV	not soluble
MPMLDMIVSRVITLLQGRESRSLRVTQAELAAGLSKTVYLHNAQLILPLPDLAFIQSLVAYDHHHPAVSTVLEAWAYGVRLHLQIHQQLLTALPLRELRRLPVTLTDHMSTPVKLAAAAGLSYASVIHWHDCWVLLEKQTLITALAREVMERQNIKLIWQE	not soluble
